Assay [1] deals with cell lines MCF-7, DU-145 and ME-180 carrying both IGF-1R and EGP-1. Put plainly: flow cytometry (FACScan), MCF-7 cells; structural control.
The target in assay [2] is EGP-1 expressed on cancer cell lines (MCF-7, DU-145, ME-180) (UniProt P09758). Nature of the assay: flow cytometry (FACScan), DU145 cells. Background: A flow cytometer gives signals particle by particle.
Assay [3] shares this target. Nature of the assay: flow cytometry (FACScan), MCF-7 cells.
Assay [4] has the same target. Put plainly: flow cytometry (FACScan), ME-180 cells.
Assay [5] addresses IGF-1R expressed on cancer cell lines (MCF-7L, MCF-7, CaPan1, DU-145, ME-180, Hep G2, HT-29, LNCaP) (human) (UniProt P08069). Nature of the assay: 125I-IGF-1 binding to MCF-7L cells, 0 ng/mL antibody (reference).
For assay [6], the target named is recombinant human IGF-1R (rhIGF-1R), immobilized on plates or polystyrene beads (human) (UniProt P08069). Put plainly: labeled antibody on rhIGF-1R-coated beads; competitor: unlabeled R1.
Assay [7] has as its target IGF-1R expressed on cancer cell lines (MCF-7L, MCF-7, CaPan1, DU-145, ME-180, Hep G2, HT-29, LNCaP) (human) (UniProt P08069). Put plainly: 125I-IGF-1 binding to MCF-7L cells in the presence of 10 ng/mL antibody.
Assay [8] addresses recombinant human IGF-1R (rhIGF-1R), immobilized on plates or polystyrene beads (human) (UniProt P08069). Put plainly: labeled antibody on rhIGF-1R-coated beads; competitor: unlabeled MAB391.
Assay [9] addresses IGF-1R expressed on cancer cell lines (MCF-7L, MCF-7, CaPan1, DU-145, ME-180, Hep G2, HT-29, LNCaP) (human) (UniProt P08069). Put plainly: 125I-IGF-1 binding to MCF-7L cells in the presence of 100 ng/mL antibody.
Assay [10] has the same target. Nature of the assay: 125I-IGF-1 binding to MCF-7L cells in the presence of 1000 ng/mL antibody.
For assay [11], the target named is recombinant human IGF-1R (rhIGF-1R), immobilized on plates or polystyrene beads (human) (UniProt P08069). Put plainly: labeled antibody on rhIGF-1R-coated beads; competitor: unlabeled 1-2.
For assay [12] the target is unchanged. Put plainly: labeled antibody on rhIGF-1R-coated beads; competitor: unlabeled 1H7.
The target is the same in assay [13]. Nature of the assay: labeled antibody on rhIGF-1R-coated beads; competitor: unlabeled 2C8.
Assay [14] shares this target. Nature of the assay: labeled antibody on rhIGF-1R-coated beads; competitor: unlabeled 3B7.
For assay [15] the target is unchanged. Put plainly: labeled antibody on rhIGF-1R-coated beads; competitor: unlabeled cR1.
The target is the same in assay [16]. Put plainly: labeled antibody on rhIGF-1R-coated beads; competitor: unlabeled hR1.
Assay [17] has the same target. Nature of the assay: labeled antibody on rhIGF-1R-coated beads; competitor: unlabeled 17-69.
Assay [18] has the same target. Nature of the assay: labeled antibody on rhIGF-1R-coated beads; competitor: unlabeled 24-31.
For assay [19] the target is unchanged. Put plainly: labeled antibody on rhIGF-1R-coated beads; competitor: unlabeled 24-57.
The target is the same in assay [20]. Put plainly: labeled antibody on rhIGF-1R-coated beads; competitor: unlabeled 24-60.
Assay [21] has the same target. Nature of the assay: labeled antibody on rhIGF-1R-coated beads; competitor: unlabeled αIR-3.
Assay [22] has as its target cell lines MCF-7, DU-145 and ME-180 carrying both IGF-1R and EGP-1. Nature of the assay: flow cytometry (FACScan), MCF-7 cells; control.
Assay [23] addresses T1, recombinant human IGF-1R (rhIGF-1R), immobilized on plates or polystyrene beads (human, UniProt P08069 31-935).
T1 construct: also called immobilized recombinant human IGF-1R; IGF-1R-coated beads
Put plainly: labeled antibody on rhIGF-1R-coated beads; competitor: unlabeled R1.

Assay [24] has as its target T1, recombinant human IGF-1R (rhIGF-1R), …. Put plainly: labeled antibody on rhIGF-1R-coated beads; competitor: unlabeled 1-2.
Assay [25] shares this target. Nature of the assay: labeled antibody on rhIGF-1R-coated beads; competitor: unlabeled 1H7.
The target is the same in assay [26]. Nature of the assay: labeled antibody on rhIGF-1R-coated beads; competitor: unlabeled 2C8.
Assay [27] shares this target. Put plainly: labeled antibody on rhIGF-1R-coated beads; competitor: unlabeled 3B7.
Assay [28] has the same target. Put plainly: labeled antibody on rhIGF-1R-coated beads; competitor: unlabeled cR1.
Assay [29] shares this target. Nature of the assay: labeled antibody on rhIGF-1R-coated beads; competitor: unlabeled hR1.
The target is the same in assay [30]. Put plainly: labeled antibody on rhIGF-1R-coated beads; competitor: unlabeled 17-69.
The target is the same in assay [31]. Put plainly: labeled antibody on rhIGF-1R-coated beads; competitor: unlabeled 24-31.
Assay [32] has the same target. Nature of the assay: labeled antibody on rhIGF-1R-coated beads; competitor: unlabeled 24-57.
Assay [33] has the same target. Put plainly: labeled antibody on rhIGF-1R-coated beads; competitor: unlabeled 24-60.
Assay [34] has the same target. Put plainly: labeled antibody on rhIGF-1R-coated beads; competitor: unlabeled αIR-3.
Assay [35] has the same target. Put plainly: labeled antibody on rhIGF-1R-coated beads; competitor: unlabeled MAB391.
Assay [36] concerns the target recombinant human insulin receptor (rhIR), immobilized (human, UniProt P06213-2 28-944, limits assumed). Nature of the assay: ELISA on immobilized receptor. Background: ELISA stands for enzyme-linked immunosorbent assay.
In assay [37] the target is T1, recombinant human IGF-1R (rhIGF-1R), …. Put plainly: ELISA on immobilized rhIGF-1R (cR1 of clones 709.2D2 and 710.2G2, the same value for each).

The record followed here is patent publication US20160333098A1 (published 2016).

Chain of EGP-1 expressed on cancer cell lines (MCF-7, DU-145, ME-180) (P09758 27-323): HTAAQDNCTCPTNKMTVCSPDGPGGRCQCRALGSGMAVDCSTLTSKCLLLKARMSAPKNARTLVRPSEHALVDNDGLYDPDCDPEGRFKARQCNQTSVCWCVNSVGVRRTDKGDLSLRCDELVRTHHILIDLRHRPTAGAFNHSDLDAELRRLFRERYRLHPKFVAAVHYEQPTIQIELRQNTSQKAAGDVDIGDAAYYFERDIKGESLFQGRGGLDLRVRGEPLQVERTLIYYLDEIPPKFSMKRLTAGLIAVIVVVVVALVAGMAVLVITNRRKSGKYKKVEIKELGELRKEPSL
Chain of recombinant human insulin receptor (rhIR), immobilized (P06213 other isoform, or with tags, fused parts or gaps limits assumed): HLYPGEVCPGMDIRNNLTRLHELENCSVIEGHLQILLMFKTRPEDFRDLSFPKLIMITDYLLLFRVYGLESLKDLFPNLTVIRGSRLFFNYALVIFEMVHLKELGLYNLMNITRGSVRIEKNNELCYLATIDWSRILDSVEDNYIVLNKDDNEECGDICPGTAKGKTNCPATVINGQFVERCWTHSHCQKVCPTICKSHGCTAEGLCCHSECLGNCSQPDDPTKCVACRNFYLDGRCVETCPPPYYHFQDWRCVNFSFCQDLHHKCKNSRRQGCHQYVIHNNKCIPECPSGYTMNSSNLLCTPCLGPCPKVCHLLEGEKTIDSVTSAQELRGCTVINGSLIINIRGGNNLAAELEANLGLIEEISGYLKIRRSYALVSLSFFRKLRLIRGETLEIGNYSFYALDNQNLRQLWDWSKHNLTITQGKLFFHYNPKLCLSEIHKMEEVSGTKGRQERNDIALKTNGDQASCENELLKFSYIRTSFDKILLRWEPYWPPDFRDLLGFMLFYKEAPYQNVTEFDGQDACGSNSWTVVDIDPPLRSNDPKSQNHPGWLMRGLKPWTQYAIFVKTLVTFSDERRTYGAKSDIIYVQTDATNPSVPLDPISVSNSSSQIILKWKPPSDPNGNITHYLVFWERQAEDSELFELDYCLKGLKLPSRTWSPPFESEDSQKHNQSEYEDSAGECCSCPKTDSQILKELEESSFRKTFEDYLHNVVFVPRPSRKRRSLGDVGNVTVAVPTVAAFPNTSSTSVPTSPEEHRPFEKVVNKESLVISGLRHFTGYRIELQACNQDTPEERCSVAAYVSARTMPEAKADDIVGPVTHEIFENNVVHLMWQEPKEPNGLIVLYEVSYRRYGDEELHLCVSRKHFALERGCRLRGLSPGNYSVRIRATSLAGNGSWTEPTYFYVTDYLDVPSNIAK

“DNL construct 22-20 (hLL2 IgG-AD2 with hA20 Fab-DDD2) (bispecific antibody)”: in assay [1], the % Positive is 3.1% and the MFI amounted to 2.11.
Turning to “Hex-hRS7, monospecific hexavalent DNL construct (hRS7 IgG-AD2 with hRS7 Fab-DDD2) (antibody)”, the % Positive was found to be 93.7% in assay [2], 99.9% in assay [3] and 100% in [4]. Also, the figures for the MFI in assay [2], in [3] and in [4] were 17, 35.7 and 59.6, respectively.
On to “MAB391, commercially available mouse anti-IGF-1R monoclonal antibody”, for which the % binding of 125I-IGF-1 in assay [5] stood at 100%; in assay [7] it was 95%; in [9], 54%; in assay [10], 38%. Also, the % binding in assay [6] was determined as 40%; in [8] it was 0%.
Turning to anti-IGF-1R antibody 24-60, the % binding in assay [6] turned out to be 0%; in assay [11], 100%; in assay [12] it was 100%; in [13], 88%; in assay [14], 79%; in [15] it was 0%. Also, the % binding in [16] turned out to be 0%; in assay [17], 82%; in [18], 18%; in assay [19] it was 88%; in [20], 0%; in [21] it was 21%. For the same molecule, in assay [8], the % binding stood at 0%.
Regarding anti-IGF-1R antibody αIR-3, the % binding in assay [6] came to 86%; in assay [11], 95%; in assay [12], 115%; in assay [13], 97%; in assay [14], 76%; in [15], 97%. The % binding in [16] turned out to be 107%; in assay [17], 89%; in [18], 52%; in assay [19], 87%; in assay [20], 0%; in [21], 0%. For the same molecule, the % binding in assay [8] is 0%.
In the case of hRS7, humanized anti-EGP-1 antibody, the % Positive was determined as 82.8% in [2], 99.2% in assay [3] and 100% in assay [4]. Besides, the values for the MFI in assay [2], in assay [3] and in assay [4] were 10.6, 21.4 and 35.5, respectively.
Consider “human IgG (control in Table 5) (antibody)”, for which, in assay [22], the % Positive turned out to be 2.34% and the MFI came out at 1.84.

B1: humanized R1 (hR1) (antibody, V domains shown)
VH: QVQLQESGGGVVQPGRSLRLSCSASGFTFSDYYMYWVRQAPGKGLEWVAYITNYGGSTYYPDTVKGRFTISRDNAKNTLFLQMDSLRPEDTGVYFCARQSNYDYDGWFAYWGQGTPVTVSS
VL: DIQLTQSPSSLSASVGDRVTITCKASQEVGTAVAWYQQKPGKAPKLLIYWASTRHTGVPSRFSGSGSGTDFTFTISSLQPEDIATYFCQQYSNYPLTFGQGTKVEIKR
notes: also called hR1 IgG; production clone 711.3C11
Consider B1, for which the “% binding” value in assay [23] stood at 0%; in assay [24], 100%; in [25], 131%; in assay [26], 100%; in [27], 100%; in assay [28] it was 0%. For the same molecule, the “% binding” value in assay [29] amounted to 0%; in [30] it was 100%; in [31], 100%; in [32], 100%; in [33] it was 71%; in assay [34] it was 136%. Besides, the “% binding” value in [35] came to 121%.

B2: chimeric R1 (cR1) (antibody, V domains shown)
VH: EVKLVESGGGLVQPGGSLKLSCATSGFTFSDYYMYWVRQTPEKRLEWVAYITNYGGSTYYPDTVKGRFTISRDNAKNTLYLQMSRLRSEDTAMYFCARQSNYDYDGWFAYWGQGTTVTVSS
VL: DIVMTQSHKFMSTSVGDRVSITCKASQEVGTAVAWYQQKPGQSPKLLIYWASTRHTGVPDRFTGSGSGTDFTLTISNVQSEDLADYFCQQYSNYPLTFGAGAKLELKR
notes: R1 variable domains on human constant regions of the pdHL2 vector (cR1pdHL2); also called mouse-human chimeric mAb of R1; clones 709.2D2 and 710.2G2
By Kd is commonly meant the free concentration of one partner at which half of the binding sites on the other are occupied at equilibrium, for simple one-to-one binding. B2: in assay [36], the binding result was “no binding”. The “% binding” value in [23] came to 0%; in assay [24] it was 100%; in assay [25] it was 125%; in assay [26], 100%; in assay [27], 106%; in [28] it was 0%. Also, the “% binding” value in [29] worked out at 0%; in [30], 100%; in [31], 100%; in [32], 100%; in assay [33], 40%; in assay [34], 128%. Further, the “% binding” value in assay [35] was determined as 108%. In addition, the Kd in assay [37] is about 0.1 nM.
